From the supplement of paper PMC12764529
± gives the half width of the 95% confidence interval.

Tests used:
[1] = folding stability dG unfold from chymotrypsin proteolysis; higher = more stable
How it was run: (§1)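 Only designs with AlphaFold2 dimer inter-PAE above 15 were retained; each was a mini-protein under 80 residues with no cysteine, in a PA-tagged cDNA display construct. After digestion with trypsin and chymotrypsin and sequencing, K50 was inferred by Bayesian fitting of counts, and unfolding free energy was derived per protease or combined against a sequence-predicted unfolded-state K50 and a shared folded-state K50.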

[2] = folding stability dG unfold (combined trypsin and chymotrypsin); higher = more stable
How it was run: as §1

[3] = folding stability dG unfold from trypsin proteolysis; higher = more stable
How it was run: as §1

Sequence	folding stability dG unfold [1] [kcal/mol]	folding stability dG unfold [2] [kcal/mol]	folding stability dG unfold [3] [kcal/mol]
SAGGSAGGSAGGVKYLTLTLPDGTVIKVPVDEPVEIRGEDGRPVEIVEAKVTEGPPGLGSAGGSAGGSAGGS [r10_20_JUSTAS]	2.326 ± 0.021	1.94 ± 0.072	0.963 ± 0.042
SAGGSAMEEEKPPKVKVRITVELEDGEKLEIEFETKEEAEEAAEALAKELEEKTGLKIKKIEVEEVSAGGSA [r15_140_TrROS_Hall]	2.96 ± 0.13	2.81 ± 0.23	2.77 ± 0.11
SAGGMKLKPVKEGEEIEIELEIVDKETKKVYKVKAKITVVKDKETKEYYVKIEIENPETGEKYTFLLKSAGG [r13_262_TrROS_Hall]	2.34 ± 0.12	2.21 ± 0.36	2.17 ± 0.13
SAGGSAGGMEVVELTVDELRALLPPGAVLLVYNRKTRKLYEIPVEELEALLKPGDKVRVVVLPPSAGGSAGG [r6_893_TrROS_Hall]	4.39 ± 0.074	4.17 ± 0.25	3.62 ± 0.17
SMTIKLPSKDFKLETLPDGTIKLTVKEPDGTVVTYTFPKGDKITKIEKITPDTIKLTFEKKPRLNPEILLSA [r9_501_JUSTAS]	3.65 ± 0.053	3.07 ± 0.22	2.16 ± 0.097
SAGDRIRITMPFDDLRKIMDEIGYPPEQMTAEEFADRLAEHFPGVKVDIEMDREDGYFTVEIELPPGMKSAG [r5_264_TrROS]	1.43 ± 0.041	1.42 ± 0.18	1.43 ± 0.062
SAGGSAGGSANIDIKVEENPGNGYRKVEVTMTVDDLRELFGNEPIPPGEERQIKMTIYLPIPSAGGSAGGSA [r18_327_TrROS]	1.37 ± 0.095	1.21 ± 0.17	0.772 ± 0.13
SNPWVEITIYFPMRPDPNGKMQPLSPSELLEELLKQGFPIKDIDIDEVTDNYIPITIRIDAKDGKIEIEWSA [r9_225_TrROS]	3.18 ± 0.13	2.85 ± 0.19	2.12 ± 0.21
SAGGSAGGSMTETVEKAPDGTPVLVLKETEESTGDGGKTILRPSTVLLPPGTVLSTEDEVILESAGGSAGGS [r12_581_JUSTAS]	1.83 ± 0.071	1.52 ± 0.072	0.944 ± 0.069
SMKYVKILLTLKGKPHVITIPSSLSLEEIIDKAIEFAKELGYKDIPKEELKILKVEENPDEEGSSSIIIGSA [r9_1053_TrMRF]	3.74 ± 0.042	3.61 ± 0.14	3.48 ± 0.2
SAGGSAGGSAGGKPKYKIVEIKYDKETKTVTLKIKLENGETVEITVPPGTSLEDILKALSAGGSAGGSAGGS [r10_984_TrROS_Hall]	3.9 ± 0.061	3.83 ± 0.055	3.57 ± 0.098
SAGGGSMLIRRRLLLVERIEDGLLTYDIEEEVYLPLPEPEVPVSVERRPDGSLVLTFPDGTRRLLPRSAGGS [r16_136_JUSTAS]	2.39 ± 0.17	2.01 ± 0.13	1.65 ± 0.077
SAGGKTIEVWFLFPPGMPPEEVASTIAKLLPPGFKIDVEILEVQPDPGGEDYIIFKATIYYPDDGQPISAGG [r13_12_TrROS]	4.68 ± 0.16	4.26 ± 0.25	3.34 ± 0.15
SAGGSAGGSAEPGPEELAKALAGELEKRFGKPVKEVKAYEIPGEKRYIVTAKLDDGEFTIIASAGGSAGGSA [r18_145_TrMRF]	-0.235 ± 0.28	-0.121 ± 0.38	-0.267 ± 0.28
SAGGSAMVKTADGKEVKVEKVIPLEEMSLEELKALAEKNNKPILIVDKKTKKVIVLTKEELEKLLKSAGGSA [r15_904_TrROS_Hall]	1.73 ± 0.071	1.33 ± 0.22	0.858 ± 0.066
SAMTTTETFEEGDYVYTVITTKIPSSLPPDSVVTIPVTTPLGAESEVVSEPGGTITVKVRLKKEDPELLSAG [r14_754_JUSTAS]	0.14 ± 0.088	-0.176 ± 0.13	-1.57 ± 0.3
SAGGSAGGSPVLIPVKTPEEIKKFLEKASSDAKFKVFNNKGEWKEVSKNEISVTPEEQFILVYSAGGSAGGS [r12_907_TrMRF]	0.662 ± 0.14	0.578 ± 0.068	0.437 ± 0.048
SAGGSAGGSAGMKVTVTITYPGGKVTTLDGDPEEVKAALPSSLTDVKITVTDPATGKVAASAGGSAGGSAGG [r11_353_JUSTAS]	0.838 ± 0.032	0.635 ± 0.12	-0.213 ± 0.06
SAGPFILVKFVTPDGRPLYYVIEIPESEEPEKLTLEQALEVAEAIAKALASKGGFEVKEVKIVSPEEFSAGG [r19_27_TrMRF]	3.802 ± 0.023	3.66 ± 0.057	3.43 ± 0.083
SAGGDPDEIKKVIITARIYRPDPDGNIHTATIPIIIEGPLDEVIEKVAKEIEEAFGTKIVEITVEKGSAGGS [r16_511_TrMRF]	1.2 ± 0.07	1.36 ± 0.14	1.54 ± 0.047
SAGGMTKTILIYDEETGVLVRIEIKVNPETGEIEEIKIETETLEDGTVKMKITLKDGTEIEVEIKPLPSAGG [r13_515_TrROS_Hall]	3.08 ± 0.28	3.25 ± 0.62	3.45 ± 0.46

Sequence	folding stability dG unfold [1] [kcal/mol]	folding stability dG unfold [2] [kcal/mol]	folding stability dG unfold [3] [kcal/mol]
SAGLKIVEDIRKKLEEEGYDVKVKYEIKPEPKDGKYIITIEVTIKDEKGNEVPIGKETIVIPLEEYEKSSAG [r5_413_JUSTAS]	2.74 ± 0.083	2.28 ± 0.16	1.27 ± 0.18
SKKVEIKIKVERNEDGYLTVTIEIRAETEEELLEAAKELAKALFPEDVEIRVEKLPDGTVKITIVVKLPPSA [r9_646_TrROS_Hall]	1.9 ± 0.11	2.29 ± 0.14	2.65 ± 0.15
SAGGSAGGSAGKMKIRVKIKRKDGKTLVIEGMSLEEIKELAEKEGFEIEKVEVVEVEPEESAGGSAGGSAGG [r11_283_TrROS_Hall]	4.24 ± 0.13	4.02 ± 0.21	3.23 ± 0.26
SAGMVIVDPKTKKKITFDKESGEIYIEVDGKKKKIKLKPGEKVEIEIIEKDGKLIIKIKANGKIIEIEPSAG [r5_858_TrROS_Hall]	2.09 ± 0.12	1.75 ± 0.2	1.56 ± 0.17
SMKSEEEKKAKELKKQKPVIVFDKETGKITVYDAKTGKKIEIEVKVKKTKDGKVEPLTEEELKKLLKKLASA [r9_1056_TrROS_Hall]	1.19 ± 0.28	1.12 ± 0.38	1.63 ± 0.077
SAGGSALKIPSGKKYTVVVKDPNKPVEYVADVIERHPDSILIEVKDPNSSKTKKITVPTNVITIDLSAGGSA [r15_381_JUSTAS]	0.684 ± 0.16	0.464 ± 0.19	-0.095 ± 0.15
SMKSKIEVKTVTFTFSPDDPLAKTPLEEIISEKAKKEGKKIEIPSYSYTSTDPAKGTKTYTFTVKIIKEESA [r9_107_JUSTAS]	0.797 ± 0.21	0.534 ± 0.14	0.122 ± 0.16
SAGGIKIEIMFLMPLKDVRSIIDEIAKMPGIKITDVEVDIIPFENGTVMFRVTFEIEIYDPENGEPISAGGS [r8_374_TrROS]	4.78 ± 0.18	4.27 ± 0.36	3.95 ± 0.21
SAGGIPPNDPEYQQKMQLLKEIQNFAKEQQQNGRDVKIETIEINPEDGRVTITVQYPNGKKVTITIPSAGGS [r8_277_TrROS]	1.56 ± 0.048	1.66 ± 0.064	1.79 ± 0.057
SAGGDVVRVRVRLRRFEIVGDRPVYRPVDIDILAEADGDPEAARRRAEREARRLAEEYGAEIEDIELFPSAG [r5_497_TrMRF]	2.57 ± 0.04	2.4 ± 0.083	2.15 ± 0.026
SAGGSMTTPPTGEVQVFIDRKTDKWTIRIVDPNAPPTTEEVESEEEAEKVIAELEAKGYKVDTVEPLPSAGG [r13_727_JUSTAS]	1.14 ± 0.5	0.913 ± 0.29	0.658 ± 0.16
SAGKEKEIAEAIEEFLKEKGYDVKVKLIKVNPNNPNLSKVVLEVEVLGYLPDKKPLGKKRFKLVILGGSAGG [r19_418_TrMRF]	2.72 ± 0.046	2.52 ± 0.17	2.64 ± 0.066
SAGGSAGGPEVKILKVDPENNTITLALPVDNEILLLEIKIEPDPENPNSFKATIELKVFPYNEASAGGSAGG [r6_371_TrMRF]	3.21 ± 0.096	2.8 ± 0.26	2.33 ± 0.28
SAGGSAELAKALGLKVTVEVEEEDGYLTVKVTVTGPNGEEKTFTMVIKIEPLPPPKKVKKGDKKNKSAGGSA [r15_843_TrROS_Hall]	3.74 ± 0.13	3.62 ± 0.21	2.44 ± 0.26
SAGGPPIKKAEIKEIYPEKGIINAIIELEDIPKPYEAIGIITDEKEGIIFVEIINPEGGPPLYFTIKASAGG [r13_337_TrMRF]	1.09 ± 0.1	0.972 ± 0.22	0.928 ± 0.033
SAGGSAGGWQPIAEHEFENPEDGKKIKIYYWPENGMMRIEFPNGRKHVIPPGDPFKSIEEMIKASAGGSAGG [r6_72_TrROS]	1.81 ± 0.059	1.54 ± 0.14	1.15 ± 0.071
SAGGSAGGVVVVAKFPTREAVFVAPESLTPEQFAEALRRELGNPDAPLVDLEVRRVTPEELLAASAGGSAGG [r6_120_TrMRF]	1.05 ± 0.12	0.691 ± 0.15	-0.269 ± 0.16
SAGGSMIPLDNIDTIEIYENPKEGKYEAKIYFPSNGKVYVFPEGLLPEIIESTPKIKEIKVIPVPESAGGSA [r2_159_TrMRF]	0.362 ± 0.26	-0.0295 ± 0.25	-1.19 ± 0.71
SAGGSAGGSAGGTAEAVRKLAEEFSQQHGMPIKDVEVQRPPNKWKPVIRYPDNGKWIEISAGGSAGGSAGGS [r10_161_TrROS]	0.465 ± 0.13	0.388 ± 0.2	0.298 ± 0.086
SAGGSVKQIALRIARDMGYPNVKVEEIPIEKTPNGWVQIPITVEHPKDGKPIGPFQIHIRPGDPIVSAGGSA [r2_137_TrROS]	0.602 ± 0.27	0.731 ± 0.29	1.17 ± 0.24
SAGGATLTEPETTVEVRFEKLPDGTVIRTTTTITPEGVTTTTEPVPVPPSPGASSEEELEALRAAAAAASAG [r5_272_JUSTAS]	1.51 ± 0.037	1.6 ± 0.18	1.75 ± 0.037
